This note sets out measurements from patent US20170096474A1 (published 2017).

Assay [1] has as its target T1, BoNT/B translocation domain (HN), yeast displayed (Clostridium botulinum, UniProt P10844 442-857).
T1 sequence: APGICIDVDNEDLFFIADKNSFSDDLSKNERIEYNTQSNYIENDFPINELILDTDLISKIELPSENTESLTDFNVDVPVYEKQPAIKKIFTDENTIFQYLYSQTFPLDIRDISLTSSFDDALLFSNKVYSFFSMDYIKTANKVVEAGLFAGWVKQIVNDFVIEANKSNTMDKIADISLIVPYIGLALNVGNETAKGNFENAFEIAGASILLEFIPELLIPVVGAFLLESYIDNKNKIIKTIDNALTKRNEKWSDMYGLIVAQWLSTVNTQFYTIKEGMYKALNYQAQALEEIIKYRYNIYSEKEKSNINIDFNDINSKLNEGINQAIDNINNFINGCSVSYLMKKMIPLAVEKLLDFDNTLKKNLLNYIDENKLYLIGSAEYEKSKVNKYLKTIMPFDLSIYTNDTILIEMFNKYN
Briefly: IgG/Fab on yeast-displayed toxin domain, flow cytometry.

For assay [2], the target named is T2, BoNT/B binding domain (HC), yeast displayed (Clostridium botulinum, UniProt P10844 858-1291).
T2 sequence: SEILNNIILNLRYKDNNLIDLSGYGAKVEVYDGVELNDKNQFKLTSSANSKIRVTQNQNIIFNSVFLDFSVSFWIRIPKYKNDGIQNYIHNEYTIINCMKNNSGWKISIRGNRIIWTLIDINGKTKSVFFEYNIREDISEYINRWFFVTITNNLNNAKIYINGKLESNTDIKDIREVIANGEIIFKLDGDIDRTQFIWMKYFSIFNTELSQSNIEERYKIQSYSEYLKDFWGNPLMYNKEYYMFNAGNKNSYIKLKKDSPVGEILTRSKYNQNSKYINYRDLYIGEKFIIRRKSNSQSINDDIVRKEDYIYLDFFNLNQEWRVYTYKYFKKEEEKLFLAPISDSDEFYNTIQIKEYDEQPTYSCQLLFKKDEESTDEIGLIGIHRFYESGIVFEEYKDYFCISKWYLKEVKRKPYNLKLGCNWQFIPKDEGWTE
The assay can be described thus: flow cytometry, mAb staining of yeast-displayed BoNT/B domains. Background: In flow cytometry, cells or beads pass a laser one at a time.

For assay [3], the target named is T3, BoNT/B light chain (LC), yeast displayed (Clostridium botulinum, UniProt P10844 1-441).
T3 sequence: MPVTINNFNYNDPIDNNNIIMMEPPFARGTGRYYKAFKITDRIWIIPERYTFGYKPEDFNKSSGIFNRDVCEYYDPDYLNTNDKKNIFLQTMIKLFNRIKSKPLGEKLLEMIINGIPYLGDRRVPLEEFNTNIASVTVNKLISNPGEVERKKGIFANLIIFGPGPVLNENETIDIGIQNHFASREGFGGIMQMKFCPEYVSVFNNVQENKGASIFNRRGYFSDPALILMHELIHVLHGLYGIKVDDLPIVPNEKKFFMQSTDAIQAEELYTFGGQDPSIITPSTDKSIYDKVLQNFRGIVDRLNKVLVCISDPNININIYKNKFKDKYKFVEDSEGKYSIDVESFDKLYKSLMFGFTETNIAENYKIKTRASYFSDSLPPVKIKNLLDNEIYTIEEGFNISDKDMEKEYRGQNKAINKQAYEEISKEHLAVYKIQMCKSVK
The description is as above.

Assay [4] deals with T2, BoNT/B binding domain (HC), yeast …. Briefly: soluble scFv or IgG on yeast-displayed BoNT/B domains.

B1: 1B18 IgG (antibody, V domains shown)
VH: EVQLVQSGGGLVQPGGSRRLSCAASGFYFNAYWMTWVRQAPGKGLEWVANINLDGTEIYYLDSVKGRFTVSRDNVKNSVFLQMSSLRVEDTAVYFCARLEWGGRNGWVSPWGQGTLVTVSS
VL: DVVMTQSPSSVSASVGDRVTITCRASQSISSYLNWYQQRPGKAPKLLIFAASSLQSAVPSRFSGSGSGTDFTLTISSLQPEDFATYYCQQSYSTPPTFGQGTKVEIKR
Regarding B1, the binding result in assay [1] is “binds”; in assay [2] it was “no binding”; in assay [3] it was “no binding”.

B2: 2B30 scFv (scFv)
scFv: EVQLVESGGGVVQPGRSLRLSCAASGFTFRRNAIHWVRQAPGKGLEWVAVISYDGVNKYYAASVKGRFAISRDNAKNTLFLQMNSLRPEDSAIYYCARDVSEYGDYVGHFDYWGQGTLVTVSSGGGGSGGGGSGGGGSSYELMQLPSASGTPGQRVSISCSGSSSNIGSNPVNWYQQLPGTAPKLLIYSNNHRPSGVPDRFSGSKSGTSASLAISGLQSEDEADYYCAAWDGSLNGHVVFGGGTKLTVL
Turning to B2, the binding result in assay [4] is “binds”.
